Assay results as given in publication PMC10827139.
Read-outs that look alike come from different tables or passages of the source.

Assays:
Assay in all cases: crystal structure
[1] = biological target: His-ICP0 (HSV-1 strain KOS infected cell protein 0, residues A636-Q776) (herpes simplex virus 1 (HSV-1), strain KOS)
[2] = biological target: His-ICP0 (HSV-1 strain KOS infected cell protein 0, residues A636-Q776) (herpes simplex virus 1 (HSV-1), strain KOS); remark: listed apart in the source
[3] = biological target: proteolytic fragment of his-ICP0 391-776 (HSV-1 strain KOS) that crystallised (herpes simplex virus 1 (HSV-1), strain KOS)

Row | Substance | stoichiometry N [1] | stoichiometry N [2] | stoichiometry N [3]
1 | His-ICP0 (HSV-1 strain KOS infected cell protein 0, residues A636-Q776) (domain or fragment) | 4 | 2 | –
2 | proteolytic fragment of his-ICP0 391-776 (HSV-1 strain KOS) that crystallised (domain or fragment) | – | – | 2
